According to PMC10572626, “NMR-Based Characterization of the Interaction between Yeast Oxa1-CTD and Ribosomes” (International Journal of Molecular Sciences, 2023):

Assays:
[1] = target: C-terminal domain of yeast S. cerevisiae mitochondrial oxidase assembly protein 1 (Oxa1-CTD, W320-K402) (S. cerevisiae) (UniProt P39952); assay: MST; Oxa1-CTD (20 µM, labelled with red fluorescent dye) kept constant; E. coli 70S or BSA titrated 1.21-20,000 nM; 20 mM HEPES pH 7.2, 75 mM NaCl, 20 mM MgCl2; three repeats
[2] = target: the molecule itself; assay: SEC; Superdex 75 increase 10/300 GL in NMR buffer (20 mM HEPES pH 7.2, 75 mM NaCl, 20 mM MgCl2, 5 mM β-mercaptoethanol); oligomeric state inferred from elution volumes against standards of the column's manual

Molecule | Kd [1] [nM] | stoichiometry N [2]
E. coli 70S ribosome (complex) | 450 | 
C-terminal domain of yeast S. cerevisiae mitochondrial oxidase assembly protein 1 (Oxa1-CTD, W320-K402) (domain or fragment, UniProt P39952 320-402, looked up, red fluorescent dye (Monolith NT protein labeling kit) in the MST assay; 15N-labelled in the NMR titration, Oxa1, yeast S. cerevisiae, C-terminal domain, residues W320 to K402 (pI = 10.5); cloned into pET-14b with an N-terminal 6x His-tag and a thrombin cleavage site; also called C-terminus of Oxa1; pET14b-Oxa1-CTD (W320-K402)) WVRSKLKITEVAKPRTPIAGASPTENMGIFQSLKHNIQKARDQAERRQLMQDNEKKLQESFKEKRQNSKIKIVHKSNFINNKK |  | 2
